Changes are numbered by the printed parent chain. Blank lines part the entries; values can stand above or below the binder they belong to.
Target: T1, human transferrin receptor (recombinant, for surface plasmon resonance) (human, UniProt P02786 89-760)
T1 construct: also called huTfR; human transferrin receptor-biotinylated
Test: SPR 25C

T1 sequence (P02786 89-760 limits assumed): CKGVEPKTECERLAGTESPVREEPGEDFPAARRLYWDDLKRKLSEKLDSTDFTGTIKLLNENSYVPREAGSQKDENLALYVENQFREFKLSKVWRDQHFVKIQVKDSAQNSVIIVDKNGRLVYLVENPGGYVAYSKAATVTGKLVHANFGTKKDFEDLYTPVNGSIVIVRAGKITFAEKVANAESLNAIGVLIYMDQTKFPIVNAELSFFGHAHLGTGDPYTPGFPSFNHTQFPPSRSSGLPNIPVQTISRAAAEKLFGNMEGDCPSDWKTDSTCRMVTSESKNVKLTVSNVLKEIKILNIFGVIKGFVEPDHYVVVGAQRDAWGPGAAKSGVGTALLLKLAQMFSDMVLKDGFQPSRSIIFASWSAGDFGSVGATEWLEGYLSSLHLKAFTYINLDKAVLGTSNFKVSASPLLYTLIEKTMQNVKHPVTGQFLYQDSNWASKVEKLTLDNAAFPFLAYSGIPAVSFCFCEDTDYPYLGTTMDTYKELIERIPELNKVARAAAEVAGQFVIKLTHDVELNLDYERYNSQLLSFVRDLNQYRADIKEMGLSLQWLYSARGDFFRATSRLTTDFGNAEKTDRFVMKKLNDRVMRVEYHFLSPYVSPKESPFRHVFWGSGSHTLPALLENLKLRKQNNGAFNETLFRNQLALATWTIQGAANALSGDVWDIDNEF

B1: 2/99 VH13/VL12 (antibody, V domains shown)
VH: QVQLQESGPGLVKPSETLSLTCTVSGFSLSSYAMSWIRQPPGKGLEWIGYIWSGGSTDYNPSLKSRVTISVDTSKNQVSLKLSSVTAADTAVYYCARRYGTSYPDYGDANGFDPWGQGTLVTVSS
VL: DIQMTQSPSSLSASVGDRVTITCRASQSISSYLAWYQQKPGKAPKLLIYRASTLASGVPSRFSGSRSGTDFTLTISSLQPEDFATYYCQQHYSSSNVDNTFGGGTKVEIK
- koff: 0.00785 s⁻¹

B2: 2/99 VH17/VL12 (antibody, V domains shown)
VH: QQLQESGPGLVKPSETLSLTCTVSGFSLSSYAMSWVRQPPGKGLEWIGYIWSGGSTDYNPSLKSRVTISKDTSKNQVSLKLSSVTAADTAVYYCARRYGTSYPDYGDANGFDPWGPGTLVTVSS
VL: B1 VL
- koff: 0.00284 s⁻¹

B5: 2/99 VH16/VL12 (antibody, V domains shown)
VH: B2 VH with K70V
VL: B1 VL
- koff: 0.00754 s⁻¹

B7: 2/99 VH13/VL14 (antibody, V domains shown)
VH: B1 VH
VL: DIVMTQSPDSLAVSLGERATINCKSSQSISSYLSWYQQKPGQRPKLLIYRASTLASGVPDRFSGSGSGTDFTLTISSLQAEDVAVYYCQQSYSSSNVDNTFGGGTKVEIK
- koff: 0.00222 s⁻¹

B8: 2/99 VH18/VL12 (antibody, V domains shown)
VH: B1 VH with E16Q, P40H, N60A, V78F
VL: B1 VL
- koff: 0.001 s⁻¹

B9: 2/99 VH12/VL14 (antibody, V domains shown)
VH: B1 VH with V78F
VL: B7 VL
- koff: 0.00546 s⁻¹

B10: 2/99 VH15/VL12 (antibody, V domains shown)
VH: B2 VH with K70V, P116Q
VL: B1 VL
- koff: 0.00764 s⁻¹

B13: 2/99 VH1/VL14 (antibody, V domains shown)
VH: VQLVETGGGLIQPGGSLRLSCAASGFSLSSYAMSWVRQAPGKGLEWVGYIWSGGSTDYADSVKGRFTISRDNSKNTLYLQMNSLRAEDTAVYYCARRYGTSYPDYGDANGFDPWGQGTLVTVSS
VL: B7 VL
- koff: 0.00299 s⁻¹

B14: 2/99 VH15/VL14 (antibody, V domains shown)
VH: B2 VH with K70V, P116Q
VL: B7 VL
- koff: 0.00194 s⁻¹

B16: 2/99 VH5/VL14 (antibody, V domains shown)
VH: B13 VH with V1Q, Q2S, L3M, V4E, Q116P
VL: B7 VL
- koff: 0.00233 s⁻¹

B17: 2/99 VH11/VL14 (antibody, V domains shown)
VH: B13 VH with V1Q, V4L, T6S, I11V
VL: B7 VL
- koff: 0.00351 s⁻¹

B19: 2/99 VH2/VL14 (antibody, V domains shown)
VH: EVQLVETGGGLIQPGGSLRLSCAASGFSLSSYAMSWVRQAPGKGLEWVGYIWSGGSTDYADSVKGRFTISRDNSKNTLYLQMNSLRAEDTAVYYCARRYGTSYPDYGDANGFDPWGQGTLVTVSS
VL: B7 VL
- koff: 0.00244 s⁻¹

B20: 2/99 VH17/VL14 (antibody, V domains shown)
VH: B2 VH
VL: B7 VL
- koff: 0.00105 s⁻¹

B21: 2/99 VH6/VL14 (antibody, V domains shown)
VH: B13 VH with V1Q, V47I
VL: B7 VL
- koff: 0.0022 s⁻¹

B22: 2/99 VH8/VL14 (antibody, V domains shown)
VH: QQLVETGGGLIQPGGSLRLSCAASGFSLSSYAMSWVRQAPGKGLEWIGYIWSGGSTDYASWAKGRFTISKTSTTLYLQMNSLRAEDTAVYYCARRYGTSYPDYGDANGFDPWGQGTLVTVSS
VL: B7 VL
- koff: 0.00104 s⁻¹

B23: 2/99 VH16/VL14 (antibody, V domains shown)
VH: B2 VH with K70V
VL: B7 VL
- koff: 0.00175 s⁻¹

B24: 2/99 VH7/VL14 (antibody, V domains shown)
VH: B13 VH with V1Q, V47I, D60S, S61W, V62A
VL: B7 VL
- koff: 0.00153 s⁻¹

B25: 2/99 VH9/VL14 (antibody, V domains shown)
VH: B13 VH with V1Q, V4L, T6S, I11V, S27T, L28F, R96K
VL: B7 VL
- koff: 0.00332 s⁻¹

Continued, values first:

- koff: 0.003 s⁻¹
B3: 2/99 VH18/VL14 (antibody, V domains shown)
VH: B1 VH with E16Q, P40H, N60A, V78F
VL: B7 VL

- koff: 0.001 s⁻¹
B4: 2/99 VH19/VL12 (antibody, V domains shown)
VH: B2 VH with Q2S, L3M, E15Q, V36I, P39H, N59A, K70V, V77F, P116Q
VL: B1 VL

- koff: 0.001 s⁻¹
B6: 2/99 VH20/VL12 (antibody, V domains shown)
VH: B2 VH with Q2S, L3M, E15Q, V36I, P39H, N59A, K70V, P116Q
VL: B1 VL

- koff: 0.00644 s⁻¹
B11: 2/99 VH22/VL12 (antibody, V domains shown)
VH: B2 VH with Q2S, L3M, E15Q, P39H, N59A, P60S, S61W, L62A, K70V, P116Q
VL: B1 VL

- koff: 0.00754 s⁻¹
B12: 2/99 VH21/VL12 (antibody, V domains shown)
VH: QSMQESGPGLVKPSQTLSLTCTVSGFSLSSYAMSWIRQHPGKGLEWIGYIWSGGSTDYASWAKSRVTISVDTSKNQVSLKLSSVTAADTAVYYCARRYGTSYPDYGDANGFDPWGQGTLVTVSS
VL: B1 VL

- koff: 0.00796 s⁻¹
B15: 2/99 VH19/VL14 (antibody, V domains shown)
VH: B12 VH with S60P, W61S, A62L, V77F
VL: B7 VL

- koff: 0.00103 s⁻¹
B18: 2/99 VH21/VL14 (antibody, V domains shown)
VH: B12 VH
VL: B7 VL

- koff: 0.00239 s⁻¹
B26: 2/99 VH20/VL14 (antibody, V domains shown)
VH: B12 VH with S60P, W61S, A62L
VL: B7 VL
